This note sets out measurements from article PMC3179936.

The term stoichiometry N denotes a count of units in the complex or per binding partner.

The assay has as its target recombinant leucyl aminopeptidase of T. cruzi (rLAPTc), N-terminal His-tag (Trypanosoma cruzi). As to the kind of experiment: AUC + SEC; sedimentation velocity of rLAPTc at 170, 56 and 10 μM, 25 mM Tris pH 8.0, 150 mM NaCl, 10°C, 42,000 rpm; s-values combined with Stokes radii from calibrated SEC (SEC-AUC method).

As to “recombinant leucyl aminopeptidase of T. cruzi (rLAPTc), N-terminal His-tag (enzyme)”, the stoichiometry N runs as follows: (species eluting at 9 ml) 10.1 subunits; (species eluting at 10 ml) 5.6 subunits.
